# Test results: patent publication US9089565B2, “Compositions and methods for causing neurite outgrowth” (MEDICAL RESEARCH COUNCIL, priority 2009, dated 2015)
# Assays:
# [1] = test system: NgR1; assay: Phosphorylation of endogenous NgR1 (upper band, immunoblotting) in RA-treated SH-SY5Y cells; format: cell-based, human; details: BDNF treatment 24 hours
# Procedure: (§1) FIG. 1. BDNF promotes neurite outgrowth of RA-treated SH-SY5Y, and induces phosphorylation of NgR1. (A) SH-SY5Y cells were incubated with indicated reagents. Cell images were taken with phase contrast microscopy. (B) Number of cells extending neurite-like structures of more than 40 μm and total cell number were counted from images taken in (A). More than 300 cells were examined in each sample. The proportion of cells extending neurite-like structures of more than 40 μm was indicated as a percentage of total cell number. An average of three experiments is shown. Error bars indicate S. E. between experiments. Data were analysed with student's t test. (C) Whole cell extracts were prepared from RA-treated SH-SY5Y cells after incubation with or without BDNF for 24 hours, and were analysed by SDS-PAGE. Immunoblotting was performed with the indicated antibodies. (D) Whole cell extract prepared from cells treated with both RA and BDNF was incubated with the indicated reagents for 1 hour at 37° C. Immunoblotting was performed with anti-NgR1 antibody. (E) RA-treated SH-SY5Y cells were incubated with BDNF in the presence or absence of one of the following: PKC inhibitor—500 nM Gö6983 or Gö6976; PKA inhibitor—2 μM KT5720 or a PKA inhibitor peptide 14-22; or either 500 nM or 1 μM of a casein kinase inhibitor, for 24 hours. Whole cell extracts prepared from these cells were analysed by SDS-PAGE. Immunoblotting was performed with anti-NgR1 antibody.
# SH-SY5Y cells were cultured in Ham's F12 medium with 10% foetal bovine serum at 37° C. in 5% CO2 and 95% air. Passage numbers between 15 and 21 were used in experiments described in this paper. Further passages induce spontaneous differentiation and cells tend to extend neurites without BDNF (data not shown). For RA treatment, the cells are seeded (20,000 cells/well) on collagen IV coated 4 well chamber slides. After 24 hours culture, medium was changed to Ham's F12 medium containing 10 μM RA and 10% foetal bovine serum. Medium was changed to fresh medium on day 3 and cells were used for experiments after 5 days culture. Encinas et al. (18) reported that RA-treated SH-SY5Y cells initiate apoptosis after withdrawal of serum only when the cells are cultured at low density. The cell density used in this paper was higher than that in the paper by Encinas et al. (18) and cell death due to depletion of serum or BDNF was not significant. In this paper, the SH-SY5Y cells treated with RA for 5 days are called RA-treated SH-SY5Y. For BDNF treatment, the RA-treated SH-SY5Y cells were washed with serum-free Ham's F12 medium and incubated with 25 ng/ml BDNF in serum-free Ham's F12 medium for 24 hours. As a control (RA alone), the RA-treated SH-SY5Y cells were incubated with serum-free Ham's F12 alone for 24 hours.
# Cells were scraped off from dishes and washed with PBS twice, and then resuspended in PBS containing 0.1% Triton X100 and phosphatase inhibitor cocktail (Roche) and EDTA-free protease inhibitor cocktail (Roche). After incubation for 15 min on ice, samples were centrifuged at 14,000×g for 20 min at 4° C. The supernatants containing 30 μg of proteins were analysed by SDS-PAGE and blotted to PVDF membrane. The PVDF membrane was incubated in blocking buffer (5% skimmed milk, 0.4% Triton X-100 in PBS) for 1 hour, first antibody diluted in the blocking buffer and appropriate secondary antibody labelled with horse radish peroxidase. Bound antibodies were visualised with ECL or ECL Plus kit (GE healthcare).
# [2] = test system: Nogo-A, LINGO-1; assay: Immunoblotting of Nogo-A and LINGO-1 in RA-treated SH-SY5Y cells; format: cell-based, human; details: after BDNF treatment 24 hours
# Procedure: as §1, with “Immunoblotting was performed with anti-NgR1 antibody. (E) RA-treated SH-SY5Y cells were incubated with BDNF in the presence or absence of one of the following: PKC inhibitor—500 nM Gö6983 or Gö6976; PKA inhibitor—2 μM KT5720 or a PKA inhibitor peptide 14-22; or either 500 nM or 1 μM of a casein kinase inhibitor, for 24 hours.” left out, “Immunoblotting was performed with anti-NgR1 antibody.” left out
# Cells were scraped off from dishes and washed with PBS twice, and then resuspended in PBS containing 0.1% Triton X100 and phosphatase inhibitor cocktail (Roche) and EDTA-free protease inhibitor cocktail (Roche). […] The supernatants containing 30 μg of proteins were analysed by SDS-PAGE and blotted to PVDF membrane. […]
molecule,measurement,setting,value
"BDNF: brain-derived neurotrophic factor, member of the neurotrophin nerve growth factor family, purchased from Merck (protein, UniProt P23560 19-247, looked up) Neurotrophic factor BDNF …: APMKEANIRGQGGLAYPGVRTHGTLESVNGPKAGSRGLTSLADTFEHVIEELLDEDQKVRPNEENNKDADLYTSRVMLSSQVPLEPPLLFLLEEYKNYLDAANMSMRVRRHSDPARRGELSVCDSISEWVTAADKKTAVDMSGGTVTVLEKVPVSKGQLKQYFYETKCNPMGYTKEGCRGIDKRHWNSQCRTTQSYVRALTMDSKKRIGWRFIRIDTSCVCTLTIKRGR",upper band of NgR1 (phosphorylated NgR1),[1],increased
same,Nogo-A and LINGO-1 protein levels,[2],neither Nogo-A nor LINGO-1 showed significant changes
